Among the data in US20150104459A1 are ELISA virus binding (OD450) and EC50 values, retold here.

The target of assay [1] is M2 protein of influenza A/Wisconsin/67/05 (H3N2), on inactivated whole virions (influenza A virus A/Wisconsin/67/05 (H3N2)). Kind of assay: ELISA, positive control antibody on inactivated whole virions.
The target in assay [2] is 23mer synthetic M2e peptide of A/Fort Worth/1/50 (influenza A virus A/Fort Worth/1/50 (H1N1)). Kind of assay: ELISA, 23mer M2e peptide coated at 1 ug/ml.

TCN-032 (8I10) (antibody), sequence (VH): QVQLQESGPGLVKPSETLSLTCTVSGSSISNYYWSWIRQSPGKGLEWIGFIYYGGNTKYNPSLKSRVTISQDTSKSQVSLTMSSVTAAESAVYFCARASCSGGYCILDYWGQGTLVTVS
TCN-032 (8I10) (antibody), sequence (VL): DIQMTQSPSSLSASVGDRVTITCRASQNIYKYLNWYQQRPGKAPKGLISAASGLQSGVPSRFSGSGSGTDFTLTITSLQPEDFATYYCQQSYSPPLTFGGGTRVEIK

In assay [1], TCN-032 (8I10) (antibody) displayed an ELISA virus binding (OD450) of 3.62 OD450.

The substance “chimeric mouse V-region/human IgG1 kappa 14C2 antibody” yielded an EC50 in assay [2] of 0.01 µg/mL.
